Assay: soluble on expression in E. coli; label from the status in PepcDB or PDB records

Sequence | soluble on expression in E. coli
MIDAVATDSSSTPSNEKPRRARRTRMTGAERRQQLLEIGRTLFAAKGFEGTSVEEIAAKAGVSKPVVYEHFGGKEGLYAVVVDREMRRLLDMVTGSLTAGHPRELCEQAAFALLDYIEEYTDGFRILVRDSPIPQSTGTFASLISDIATQVEDILGREFKNRGFDAKLAPLYAQALVGMVALTGQWWLDVRRPKKAEVAAHLVNLAWHGLDGLEPKPRLIGHRKS | not soluble
MIDCAIIGGGPAGLSAGLYATRGGVKNAVLFEKGMPGGQITGSSEIENYPGVKEVVSGLDFMQPWQEQCFRFGLKHEMTAVQRVSKKDSHFVILAEDGKTFEAKSVIIATGGSPKRTGIKGESEYWGKGVSTCATCDGFFYKNKEVAVLGGGDTAVEEAIYLANICKKVYLIHRRDGFRCAPITLEHAKNNDKIEFLTPYVVEEIKGDASGVSSLSIKNTATNEKRELVVPGFFIFVGYDVNNAVLKQEDNSMLCKCDEYGSIVVDFSMKTNVQGLFAAGDIRIFAPKQVVCAASDGATAALSVISYLEHH | soluble
MIDEPTGLYNRLRLQEDVSLRLQRDGALTVIAADLLPLALLNTIIRTLGYPFSNDLMLEARDRIRAELPDFTLYKISPTRFGLLLPRQQQEETESVCLRLLRAFESPVVCRGIPIKANVGLGVLPLADDTLDGDQDWLRLVVSAADDARDRGVGWARYNPPLDQAQQRLEHHHHHH | soluble
MIDFACKEFKVEDVIKCALNLTKADLNVMKSFLNEPDRWIDTDALSKSLKLDVSTVQRSVKKLHEKEILQRSQQNLDGGGYVYIYKIYSKNQIRNIIQKIVQSWADRLGQELKEWENGGE | not soluble
MIDPREIAISSRLEKVRNVIPVVSGKGGVGKSLISTTLALLLREKGYKVGLLDLDFHGASDHVILGFEPKEFPEEDKGVVPPEVNGVKFMTIVYYTENKPTPLRGKEVSDALIELLTITRWDELDYLVIDMPPGLGDPFLDVLRFLKRGKFIVVATPSKLALNVVEKLIQLLKEENREILGIIENMKLDEEEDVKNLAKRHGINYLLGVPFYRDLEEKIGKVEELLKTPFADKLREVIKVLV | soluble
MIDTFERTGPLMEASSYPAWAQQLINDCSPAKARVVEHELYQQMRDAKLSPQIMRQYLIGGWPVVEQFAVYMAKNLTKTRFGRHPGEDMARRWLMRNIRVELNHADYWVNWCAAHDVTLEDLHDQRVAPELHALSHWCWQTSSSDSLAVAMAATNYAIEGATGEWSAVVCSTGVYAEAFAEETRKKSMKWLKMHAQYDDAHPWEALEIICTLVGNKPSLQLQAELRQAVTKSYDYMYLFLERCIQLDKVKSPRGRVAALEM | soluble
MIDTNLLRVTVCDEGELEKSTTHFIGSRKIEPEQWITWASECKYLPESDAVALCATLIDRLSLEANVVPVSSPVTICGDIHGQFYDLLELFKTGGTVPNTKYVFMGDYVDRGHYSLETVTLLFCLLLKYPNQITLLRGNHESRRISNVYGFYDECQNKYGHGNVHKWFCKVFDVLPIGALIDESVLCVHGGLSPDIRTIDSLMLLDRAQEVPNKGPLCDIMWSDPDDDVEDWVISQRGAGFVFGAKVTEEFLMNNDLSLLCRSHQLVDEGFKYMFNEKLATVWSAPNYCYRCGNAAAVFEIDGNNRSTKYFNAVPDGSREKPDRVVAPYFL | not soluble
MIEMKYILARATDEEIQKRGECGGAVTAIFKYMLDREIVDGVLTLERGDDIYDGIPVLLEDSDEIVSTCGSLHCAPTMFGDLISRYLNDMRLAVAVKPCDAMAIKELEKRHQIDPQRVYMIGLNCGGTLSPVSAREMIETFYEIDPDDVVREEIDKGKFIVELKDGSHKEISIDYLEEEGFGRRENCQRCELMVPRNADIACGNWGAEEGWTFIEVNTDRGEEIIEGARREGYLEVKEPPMKMIEIREKIENAMIKMARKFQDKYLEDEYPSLDDWDEYWKRCINCFACRDLCPICFCRECELEKDYLLESDEKAPDPLTFQGVRLSHMGFSCINCGQCEDVCPMDIPLARIYHRIQRKYRDRTGFTAGVSEELPPMYSGEKDLEHHHHHH | soluble
MIEMTPDSSVYKALLESTKAIPWKINWQTMAFEYIGPQIEALLGWPQGSWKSVEDWATRMHPEDQEWVVNFCVKQSECGVDHEADYRALHRDGHYVWIRDVVHVVRDDSGEVEALIGFMFDISERKKTLEHHHHHH | soluble
MIEPIWIDEQVALAIHERLISLHSGASGVRDKELLKSALARPLNLLAYDQQADVIHLAAAYTAGILQNHPFVDRNKRTGFVVGVLFLELNGYRFTAAEEDSAQAVIALAAGSLDEARFKLFLADNSIPV | not soluble
MIETITQSQETAILESFLELVKSPYGNFASIGKLSHVLNDPDTLQKVVAVLSLTPQGKQAFEDRPMLGKIDLEQLHQLPNYTLGYMYADHMIRNQLTPPPVNENVNHPFMFLAAHLGETHDIWHVVTGCDTDKPGEVKLEAFYTAQLIPDRLFLALLAKNLLKTAMYEVELCEQILDGLTQGWMMGKRAKPLFGIEWNKLWETPLEELQTSLNIVPILEHHHHHH | soluble
MIFAYNKEQVGDVLLVILEDTKDIKRSVERKGKVARVTADETGKTLAWNIFEASSLIDIEGNGQVFLSDQDVAILNEELAKEGFEERLENTQGPVFVVGQIDEMVPHPDSDHLNICQVNIGDKKVQIVAGAPNASPGLKTIVALPGAMMPSGALIFPGKLRGEDSYGMMCSPRELALPNAPQKRGIIELDDSAVVGEAFDPAKHWKRLEHHHHHH | soluble
MIGAQVDMHFTKGYPSVDLSDPWNKNVLLEVVRMAIPLMKHPNYYRINGKPAIFIWNEAIFYNRAEAYREIKEMVKRDLGVEPYIIADVLPRIMADRKVIPGTPEGEWYIRNLLLRKNDGGDKFIDAYTSWIGFYSVQGETALTPREIEMYSKLYREHVEAWSSYTNGRNKCFIPTVSPGFDRTFDKSFNQQFPIPRDPKRFAEMLKIALDSLGNCKEIRIDTWNDFYEGTFIEPSVSDGFTYLEVLEEFIKELKENLEHHHHHH | not soluble
MIGDGKLLASAAWDAQSLNELKAKAGQDPAANIRPVARQVEGMFVQMMLKSMREALPKDGLFSSDQTRLYTSMYDQQIAQQMTAGKGLGLADMMVKQMTSGQTMPADDAPQVPLKFSLETVNSYQNQALTQLVRKAIPKTPDSSDAPLSGDSKDFLARLSLPARLASEQSGVPHHLILAQAALESGWGQRQILRENGEPSYNVFGVKATASWKGPVTEITTTEYENGEAKKVKAKFRVYSSYLEALSDYVALLTRNPRYAAVTTAATAEQGAVALQNAGYATDPNYARKLTSMIQQLKAMSEKVSKTYSANLDNLF | not soluble
MIGIVAAFEKVKIPEMGKSFGTGWLPPLPSLKDYTEESAQIPEMAEKLGIPTSRKETKTLELPVSIDFRNWCSPIEDQMDLGSCTAHAGVGVVEYFERRAFGKHIDGSRFFVYKTTRNLMGVKGDTGAWLRNTMGALALCGVPPEKYFPYTSRKTPGPDGEPTFDDEPSSFVYSLADNFEALNYFCHDPQGMNLPPEDVILSVKKYLAAGIPSMFGFYGFPSFKDTDVKGGIPFPGPDERSIWGHAVVAVGYDDNMKIRNTLSNKETTGAFLIRNSWGTAWGDKGYGWLPYEYALNKLEHHHHHH | not soluble
MIGKLKKGSSFGGCIRYVTGKDEAKIIASDGVLLGTNAEITQSFELQRQLNPRIKKPVGHIALSFKPEDKPRLTDEFMTKIAIEYMQMMGITKTQFIIIRHHNADNPHCHIVYNRINNESKLISDRNDYRRNEQVTKALKSKYGLTYGTDKSNTNTRKLRNAERAKYEIHNAVKDALKMADSWEKLRSELAKRGVHLEFVYKDKAQTKVQGIRFCKDGYSFKGTQICREYSFGKLNAKFEGTENHVSTRANSAQQYEQGCRKNEQVPFMSENCQDPWDGISSIGLFASANAQTFESFPEDESAKKKKKKRRRGFSL | not soluble
MIGLLFLFAACQEKVTSPAKVDTLPSIFPDYVGVTIPSTIAPLNFRVTDDGVEAVDVVIAGTKGKPVRLNGRSVDIPAKQWHELLESNKGDSIEVKVSVRQGKKWKEYRPFPIYVSPFPIDYGLVYRLLAPGYEVYSKMGIYERELSTFRQTPLFENTQVTAACINCHAFNRTEPTPSSVHVRGGHGATVIDTGDRLEFLDTKADGQLSACVYPYWHPSGEYIAYSVNKTNQAFHLGGKKPIEVFDQASDVVVYHPRSHRILTTPLLSTASFETFPAFSPDGRTLYFCSAEQKEMPVRYKDVKYSLCSIAFHPEDGTFGDRIDTLISARTLDKSISFPKPSFDGKYLMFTLSDYGNFSIWHKEADLWLLDLKTGTYRNLEEVNSDDTESYHNWSSNSHWFVFSSRRGDGLYTRLYISSVDGQGRIGKPFLLPQQDPYTFYDQLIYSYNVPEFVSAPVQWDKREMAKGLMSKERVKVKLEHHHHHH | not soluble

Source: the DeepSol protein solubility set
